# *1 amine or outer side, *2 acyl side, *3 side chain or, on linkers, in order; H or OH if unused. Side-chain parts run from the residue outwards. [ ]: non-standard residue; d: D form. The star is where a group is joined. γGlu = O=C(O)[C@H](CCC(=O)[*:2])N[*:1]; Palmitoyl = CCCCCCCCCCCCCCCC(=O)*; Octanoyl = CCCCCCCC(=O)*; Dap = NC[C@H](N)C(=O)O; Octyl = CCCCCCCC*
# Molecular target: human growth hormone secretagogue receptor type 1a (human, UniProt Q92847 1-366)
# Assay: cell-based or functional assay
# human growth hormone secretagogue receptor type 1a, sequence (Q92847 whole entry): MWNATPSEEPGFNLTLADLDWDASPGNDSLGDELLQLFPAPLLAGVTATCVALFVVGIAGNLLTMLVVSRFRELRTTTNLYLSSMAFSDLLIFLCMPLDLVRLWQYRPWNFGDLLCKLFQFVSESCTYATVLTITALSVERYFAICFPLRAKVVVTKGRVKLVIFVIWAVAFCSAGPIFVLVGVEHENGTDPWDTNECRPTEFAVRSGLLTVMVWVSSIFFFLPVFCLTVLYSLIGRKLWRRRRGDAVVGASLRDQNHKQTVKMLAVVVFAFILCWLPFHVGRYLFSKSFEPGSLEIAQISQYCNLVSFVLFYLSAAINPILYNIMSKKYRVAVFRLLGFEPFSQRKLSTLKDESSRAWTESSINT
row,EC50 (nM); Ca2+ induction in HEK293 cells stably expressing the human ghrelin receptor [nM],Binder
1,0.298,H-PSS(Octanoyl)FLSPEHQRVQQRKESKKPPAKLQPR-OH [H-PS-S(O-octanoyl)-FLSPEHQRVQQRKESKKPPAKLQPR-OH]
2,0.454,H-PSS(Octyl)FLSPEHSRVSSRKESSSPPAKLSPR-NH2 (SMILES CCCCCCCCOC[C@H](NC(=O)[C@H](CO)NC(=O)[C@@H]1CCCN1)C(=O)N[C@@H](Cc1ccccc1)C(=O)N[C@@H](CC(C)C)C(=O)N[C@@H](CO)C(=O)N1CCC[C@H]1C(=O)N[C@@H](CCC(=O)O)C(=O)N[C@@H](Cc1c[nH]cn1)C(=O)N[C@@H](CO)C(=O)N[C@@H](CCCNC(=N)N)C(=O)N[C@H](C(=O)N[C@@H](CO)C(=O)N[C@@H](CO)C(=O)N[C@@H](CCCNC(=N)N)C(=O)N[C@@H](CCCCN)C(=O)N[C@@H](CCC(=O)O)C(=O)N[C@@H](CO)C(=O)N[C@@H](CO)C(=O)N[C@@H](CO)C(=O)N1CCC[C@H]1C(=O)N1CCC[C@H]1C(=O)N[C@@H](C)C(=O)N[C@@H](CCCCN)C(=O)N[C@@H](CC(C)C)C(=O)N[C@@H](CO)C(=O)N1CCC[C@H]1C(=O)N[C@@H](CCCNC(=N)N)C(N)=O)C(C)C) [H-PS-S(O-octyl)-FLSPEHSRVSSRKESSSPPAKLSPR-NH2]
3,0.182,H-PSS(Octanoyl)FLSPEHQRVQQRSESKKPPAKLQPR-NH2 (SMILES CCCCCCCC(=O)OC[C@H](NC(=O)[C@H](CO)NC(=O)[C@@H]1CCCN1)C(=O)N[C@@H](Cc1ccccc1)C(=O)N[C@@H](CC(C)C)C(=O)N[C@@H](CO)C(=O)N1CCC[C@H]1C(=O)N[C@@H](CCC(=O)O)C(=O)N[C@@H](Cc1c[nH]cn1)C(=O)N[C@@H](CCC(N)=O)C(=O)N[C@@H](CCCNC(=N)N)C(=O)N[C@H](C(=O)N[C@@H](CCC(N)=O)C(=O)N[C@@H](CCC(N)=O)C(=O)N[C@@H](CCCNC(=N)N)C(=O)N[C@@H](CO)C(=O)N[C@@H](CCC(=O)O)C(=O)N[C@@H](CO)C(=O)N[C@@H](CCCCN)C(=O)N[C@@H](CCCCN)C(=O)N1CCC[C@H]1C(=O)N1CCC[C@H]1C(=O)N[C@@H](C)C(=O)N[C@@H](CCCCN)C(=O)N[C@@H](CC(C)C)C(=O)N[C@@H](CCC(N)=O)C(=O)N1CCC[C@H]1C(=O)N[C@@H](CCCNC(=N)N)C(N)=O)C(C)C) [H-PS-S(octanoyl)-FLSPEHQRVQQRSESKKPPAKLQPR-NH2]
4,0.341,H-PSS(Octyl)FLSPEHSRPSSR-NH2 (SMILES CCCCCCCCOC[C@H](NC(=O)[C@H](CO)NC(=O)[C@@H]1CCCN1)C(=O)N[C@@H](Cc1ccccc1)C(=O)N[C@@H](CC(C)C)C(=O)N[C@@H](CO)C(=O)N1CCC[C@H]1C(=O)N[C@@H](CCC(=O)O)C(=O)N[C@@H](Cc1c[nH]cn1)C(=O)N[C@@H](CO)C(=O)N[C@@H](CCCNC(=N)N)C(=O)N1CCC[C@H]1C(=O)N[C@@H](CO)C(=O)N[C@@H](CO)C(=O)N[C@@H](CCCNC(=N)N)C(N)=O) [H-PS-S(O-octyl)-FLSPEHSRPSSR-NH2]
5,0.642,H-PSS(Octyl)FLSPEHSRPSSRPESSSPPAKLSPR-NH2 (SMILES CCCCCCCCOC[C@H](NC(=O)[C@H](CO)NC(=O)[C@@H]1CCCN1)C(=O)N[C@@H](Cc1ccccc1)C(=O)N[C@@H](CC(C)C)C(=O)N[C@@H](CO)C(=O)N1CCC[C@H]1C(=O)N[C@@H](CCC(=O)O)C(=O)N[C@@H](Cc1c[nH]cn1)C(=O)N[C@@H](CO)C(=O)N[C@@H](CCCNC(=N)N)C(=O)N1CCC[C@H]1C(=O)N[C@@H](CO)C(=O)N[C@@H](CO)C(=O)N[C@@H](CCCNC(=N)N)C(=O)N1CCC[C@H]1C(=O)N[C@@H](CCC(=O)O)C(=O)N[C@@H](CO)C(=O)N[C@@H](CO)C(=O)N[C@@H](CO)C(=O)N1CCC[C@H]1C(=O)N1CCC[C@H]1C(=O)N[C@@H](C)C(=O)N[C@@H](CCCCN)C(=O)N[C@@H](CC(C)C)C(=O)N[C@@H](CO)C(=O)N1CCC[C@H]1C(=O)N[C@@H](CCCNC(=N)N)C(N)=O) [H-PS-S(O-octyl)-FLSPEHSRPSSRPESSSPPAKLSPR-NH2]

# The next lines start with the binder.
row,Binder,EC50 (nM); Ca2+ induction in HEK293 cells stably expressing the human ghrelin receptor [nM]
1,H-PS[Dap](Octanoyl)FLSPEHSRVSSRKESK([γGlu-Palmitoyl])KPPA-NH2 (SMILES CCCCCCCCCCCCCCCC(=O)N[C@@H](CCC(=O)NCCCC[C@H](NC(=O)[C@H](CO)NC(=O)[C@H](CCC(=O)O)NC(=O)[C@H](CCCCN)NC(=O)[C@H](CCCNC(=N)N)NC(=O)[C@H](CO)NC(=O)[C@H](CO)NC(=O)[C@@H](NC(=O)[C@H](CCCNC(=N)N)NC(=O)[C@H](CO)NC(=O)[C@H](Cc1c[nH]cn1)NC(=O)[C@H](CCC(=O)O)NC(=O)[C@@H]1CCCN1C(=O)[C@H](CO)NC(=O)[C@H](CC(C)C)NC(=O)[C@H](Cc1ccccc1)NC(=O)[C@H](CNC(=O)CCCCCCC)NC(=O)[C@H](CO)NC(=O)[C@@H]1CCCN1)C(C)C)C(=O)N[C@@H](CCCCN)C(=O)N1CCC[C@H]1C(=O)N1CCC[C@H]1C(=O)N[C@@H](C)C(N)=O)C(=O)O) [H-PS-Dap(N-octanoyl)-FLSPEHSRVSSRKES-K(hexadecanoyl-isoGlu)-KPPA-NH2],0.566
2,H-PSS(Octyl)FLSPEHSRVSSRKESKSPPAKLSPR-NH2 (SMILES CCCCCCCCOC[C@H](NC(=O)[C@H](CO)NC(=O)[C@@H]1CCCN1)C(=O)N[C@@H](Cc1ccccc1)C(=O)N[C@@H](CC(C)C)C(=O)N[C@@H](CO)C(=O)N1CCC[C@H]1C(=O)N[C@@H](CCC(=O)O)C(=O)N[C@@H](Cc1c[nH]cn1)C(=O)N[C@@H](CO)C(=O)N[C@@H](CCCNC(=N)N)C(=O)N[C@H](C(=O)N[C@@H](CO)C(=O)N[C@@H](CO)C(=O)N[C@@H](CCCNC(=N)N)C(=O)N[C@@H](CCCCN)C(=O)N[C@@H](CCC(=O)O)C(=O)N[C@@H](CO)C(=O)N[C@@H](CCCCN)C(=O)N[C@@H](CO)C(=O)N1CCC[C@H]1C(=O)N1CCC[C@H]1C(=O)N[C@@H](C)C(=O)N[C@@H](CCCCN)C(=O)N[C@@H](CC(C)C)C(=O)N[C@@H](CO)C(=O)N1CCC[C@H]1C(=O)N[C@@H](CCCNC(=N)N)C(N)=O)C(C)C) [H-PS-S(O-octyl)-FLSPEHSRVSSRKESKSPPAKLSPR-NH2],0.296
3,H-PSS(Octanoyl)FLSPEHQSVQQRKESKKPPAKLQPR-NH2 (SMILES CCCCCCCC(=O)OC[C@H](NC(=O)[C@H](CO)NC(=O)[C@@H]1CCCN1)C(=O)N[C@@H](Cc1ccccc1)C(=O)N[C@@H](CC(C)C)C(=O)N[C@@H](CO)C(=O)N1CCC[C@H]1C(=O)N[C@@H](CCC(=O)O)C(=O)N[C@@H](Cc1c[nH]cn1)C(=O)N[C@@H](CCC(N)=O)C(=O)N[C@@H](CO)C(=O)N[C@H](C(=O)N[C@@H](CCC(N)=O)C(=O)N[C@@H](CCC(N)=O)C(=O)N[C@@H](CCCNC(=N)N)C(=O)N[C@@H](CCCCN)C(=O)N[C@@H](CCC(=O)O)C(=O)N[C@@H](CO)C(=O)N[C@@H](CCCCN)C(=O)N[C@@H](CCCCN)C(=O)N1CCC[C@H]1C(=O)N1CCC[C@H]1C(=O)N[C@@H](C)C(=O)N[C@@H](CCCCN)C(=O)N[C@@H](CC(C)C)C(=O)N[C@@H](CCC(N)=O)C(=O)N1CCC[C@H]1C(=O)N[C@@H](CCCNC(=N)N)C(N)=O)C(C)C) [H-PS-S(octanoyl)-FLSPEHQSVQQRKESKKPPAKLQPR-NH2],0.149
4,H-PSS(Octanoyl)FLSPEHQRVQQSKESKKPPAKLQPR-NH2 (SMILES CCCCCCCC(=O)OC[C@H](NC(=O)[C@H](CO)NC(=O)[C@@H]1CCCN1)C(=O)N[C@@H](Cc1ccccc1)C(=O)N[C@@H](CC(C)C)C(=O)N[C@@H](CO)C(=O)N1CCC[C@H]1C(=O)N[C@@H](CCC(=O)O)C(=O)N[C@@H](Cc1c[nH]cn1)C(=O)N[C@@H](CCC(N)=O)C(=O)N[C@@H](CCCNC(=N)N)C(=O)N[C@H](C(=O)N[C@@H](CCC(N)=O)C(=O)N[C@@H](CCC(N)=O)C(=O)N[C@@H](CO)C(=O)N[C@@H](CCCCN)C(=O)N[C@@H](CCC(=O)O)C(=O)N[C@@H](CO)C(=O)N[C@@H](CCCCN)C(=O)N[C@@H](CCCCN)C(=O)N1CCC[C@H]1C(=O)N1CCC[C@H]1C(=O)N[C@@H](C)C(=O)N[C@@H](CCCCN)C(=O)N[C@@H](CC(C)C)C(=O)N[C@@H](CCC(N)=O)C(=O)N1CCC[C@H]1C(=O)N[C@@H](CCCNC(=N)N)C(N)=O)C(C)C) [H-PS-S(octanoyl)-FLSPEHQRVQQSKESKKPPAKLQPR-NH2],0.168
5,H-PSS(Octyl)FLSPEHSRVSSRKESSKPPAKLSPR-NH2 (SMILES CCCCCCCCOC[C@H](NC(=O)[C@H](CO)NC(=O)[C@@H]1CCCN1)C(=O)N[C@@H](Cc1ccccc1)C(=O)N[C@@H](CC(C)C)C(=O)N[C@@H](CO)C(=O)N1CCC[C@H]1C(=O)N[C@@H](CCC(=O)O)C(=O)N[C@@H](Cc1c[nH]cn1)C(=O)N[C@@H](CO)C(=O)N[C@@H](CCCNC(=N)N)C(=O)N[C@H](C(=O)N[C@@H](CO)C(=O)N[C@@H](CO)C(=O)N[C@@H](CCCNC(=N)N)C(=O)N[C@@H](CCCCN)C(=O)N[C@@H](CCC(=O)O)C(=O)N[C@@H](CO)C(=O)N[C@@H](CO)C(=O)N[C@@H](CCCCN)C(=O)N1CCC[C@H]1C(=O)N1CCC[C@H]1C(=O)N[C@@H](C)C(=O)N[C@@H](CCCCN)C(=O)N[C@@H](CC(C)C)C(=O)N[C@@H](CO)C(=O)N1CCC[C@H]1C(=O)N[C@@H](CCCNC(=N)N)C(N)=O)C(C)C) [H-PS-S(O-octyl)-FLSPEHSRVSSRKESSKPPAKLSPR-NH2],0.359
6,H-PSS(Octyl)FLSPEHSRVSSRPESSSPPAKLSPR-NH2 (SMILES CCCCCCCCOC[C@H](NC(=O)[C@H](CO)NC(=O)[C@@H]1CCCN1)C(=O)N[C@@H](Cc1ccccc1)C(=O)N[C@@H](CC(C)C)C(=O)N[C@@H](CO)C(=O)N1CCC[C@H]1C(=O)N[C@@H](CCC(=O)O)C(=O)N[C@@H](Cc1c[nH]cn1)C(=O)N[C@@H](CO)C(=O)N[C@@H](CCCNC(=N)N)C(=O)N[C@H](C(=O)N[C@@H](CO)C(=O)N[C@@H](CO)C(=O)N[C@@H](CCCNC(=N)N)C(=O)N1CCC[C@H]1C(=O)N[C@@H](CCC(=O)O)C(=O)N[C@@H](CO)C(=O)N[C@@H](CO)C(=O)N[C@@H](CO)C(=O)N1CCC[C@H]1C(=O)N1CCC[C@H]1C(=O)N[C@@H](C)C(=O)N[C@@H](CCCCN)C(=O)N[C@@H](CC(C)C)C(=O)N[C@@H](CO)C(=O)N1CCC[C@H]1C(=O)N[C@@H](CCCNC(=N)N)C(N)=O)C(C)C) [H-PS-S(O-octyl)-FLSPEHSRVSSRPESSSPPAKLSPR-NH2],0.525

# From patent US9657062B2, “Ghrelin analogues” (Zealand Pharma A/S, priority 2012, dated 2017)
